Measured values taken from paper PMC4809669 (Biochemistry, 2016).
Residue numbers refer to the chain shown, from its start. Numbers in names are those of the source.

B1: hASRGL1-C202A (enzyme, human, UniProt Q7L266 1-308, looked up)
chain: MNPIVVVHGGGAGPISKDRKERVHQGMVRAATVGYGILREGGSAVDAVEGAVVALEDDPEFNAGCGSVLNTNGEVEMDASIMDGKDLSAGAVSAVQCIANPIKLARLVMEKTPHCFLTDQGAAQFAAAMGVPEIPGEKLVTERNKKRLEKEKHEKGAQKTDCQKNLGTVGAVALDCKGNVAYATSTGGIVNKMVGRVGDSPALGAGGYADNDIGAVSTTGHGESILKVNLARLTLFHIEQGKTVEEAADLSLGYMKSRVKGLGGLIVVSKTGDWVAKWTSTSMPWAAAKDGKLHFGIDPDDTTITDLP
B2: hASRGL1-C202S (enzyme, human, UniProt Q7L266 1-308, looked up)
chain: B1 chain with A202S

Target: the molecule itself
Assay: SEC

| Protein | stoichiometry N |
| --- | --- |
| B1 | 2 |
| B2 | 2 |
